Data as given in article PMC5454392, “Selective BET bromodomain inhibition as an antifungal therapeutic strategy” (Nature Communications, 2017).
Where two headings read alike, the source gives them in different places. Square brackets hold non-standard residues; d marks the D form. Ends that are not written are not given here. Arg(Me2a) = CN(C)C(=N)NCCC[C@H](N)C(=O)O; Lys(Me3) = C[N+](C)(C)CCCC[C@H](N)C(=O)O; Arg(Me2s) = CN=C(NC)NCCC[C@H](N)C(=O)O; pT = C[C@@H](OP(=O)(O)O)[C@H](N)C(=O)O; Lys(Me2) = CN(C)CCCC[C@H](N)C(=O)O; pS = N[C@@H](COP(=O)(O)O)C(=O)O; Lys(Me) = CNCCCC[C@H](N)C(=O)O; Me2a = not defined here

Experiments:
CaBdf1 BD1 = molecular target: T1, CaBdf1 BD1 (Candida albicans, UniProt Q5A4W8); type: binding; conditions: wild-type BD1; for CaBdf1 BD1 Normalized (0 to 100%) WT: normalized array signal; for CaBdf1 BD1 Raw data WT: peptide array signal;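 on CaBdf1 BD1 Normalized (0 to 100%) WT: normalized to spotted c-myc peptide positive control signal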
T1 construct: made in house; host or cells: E. coli BL21(DE3)
T1 sequence (Q5A4W8 whole entry, looked up): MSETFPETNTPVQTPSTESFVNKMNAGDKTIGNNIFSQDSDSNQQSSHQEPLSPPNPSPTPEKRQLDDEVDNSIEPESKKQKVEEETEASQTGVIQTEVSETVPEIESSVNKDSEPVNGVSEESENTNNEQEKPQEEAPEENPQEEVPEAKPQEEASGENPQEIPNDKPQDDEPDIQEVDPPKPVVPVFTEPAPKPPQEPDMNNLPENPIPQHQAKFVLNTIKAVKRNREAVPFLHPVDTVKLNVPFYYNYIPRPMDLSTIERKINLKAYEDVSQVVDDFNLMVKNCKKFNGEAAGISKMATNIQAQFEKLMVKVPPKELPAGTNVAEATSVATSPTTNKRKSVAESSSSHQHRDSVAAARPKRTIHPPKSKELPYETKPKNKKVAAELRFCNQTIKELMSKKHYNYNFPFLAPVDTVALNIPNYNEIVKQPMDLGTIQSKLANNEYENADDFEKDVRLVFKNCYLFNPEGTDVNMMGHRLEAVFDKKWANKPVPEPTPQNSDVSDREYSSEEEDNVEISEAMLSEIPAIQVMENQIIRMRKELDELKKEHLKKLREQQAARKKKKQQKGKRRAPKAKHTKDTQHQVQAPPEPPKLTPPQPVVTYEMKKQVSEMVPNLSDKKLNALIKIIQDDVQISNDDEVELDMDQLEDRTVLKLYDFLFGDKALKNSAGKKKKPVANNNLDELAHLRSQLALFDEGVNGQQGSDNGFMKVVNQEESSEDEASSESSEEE
Protocol: (§1) In short, arrays were blocked and incubated with 1 μM of purified CaBdf1 BD1 or BD2. Arrays were incubated with recombinant BDs for 2 h at 4 °C in binding buffer (Tris-HCl 50 mM pH 7.4, NP-40 0.1%, NaCl 150 mM, glycerol 10%). […] Assays were performed in duplicate.

CaBdf1 BD2 = molecular target: T2, CaBdf1 BD2 (Candida albicans, UniProt Q5A4W8); type: binding; conditions: wild-type BD2; for CaBdf1 BD2 Normalized (0 to 100%) WT: normalized array signal; for CaBdf1 BD2 Raw data WT: peptide array signal;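 on CaBdf1 BD2 Normalized (0 to 100%) WT: normalized to spotted c-myc peptide positive control signal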
T2 construct: made in house; host or cells: E. coli BL21(DE3)
T2 sequence (Q5A4W8 whole entry, looked up): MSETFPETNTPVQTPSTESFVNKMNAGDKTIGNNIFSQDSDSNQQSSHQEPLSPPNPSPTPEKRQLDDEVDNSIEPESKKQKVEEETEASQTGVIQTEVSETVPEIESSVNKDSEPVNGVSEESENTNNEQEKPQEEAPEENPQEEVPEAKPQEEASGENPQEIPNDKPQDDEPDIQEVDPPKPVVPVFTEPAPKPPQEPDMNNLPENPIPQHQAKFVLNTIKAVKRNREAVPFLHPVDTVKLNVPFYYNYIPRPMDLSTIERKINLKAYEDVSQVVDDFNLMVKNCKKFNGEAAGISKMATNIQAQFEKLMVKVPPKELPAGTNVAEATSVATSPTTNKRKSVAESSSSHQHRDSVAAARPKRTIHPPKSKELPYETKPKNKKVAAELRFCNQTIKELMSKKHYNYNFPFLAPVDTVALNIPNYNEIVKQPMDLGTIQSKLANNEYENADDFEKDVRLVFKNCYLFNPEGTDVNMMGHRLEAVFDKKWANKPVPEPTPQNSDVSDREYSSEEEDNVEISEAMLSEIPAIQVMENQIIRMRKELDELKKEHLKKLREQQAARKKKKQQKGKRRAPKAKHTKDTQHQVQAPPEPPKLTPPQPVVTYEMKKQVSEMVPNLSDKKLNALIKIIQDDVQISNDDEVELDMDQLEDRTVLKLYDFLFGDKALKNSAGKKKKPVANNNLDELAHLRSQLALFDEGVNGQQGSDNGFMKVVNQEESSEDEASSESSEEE
Protocol: as §1

CaBdf1 BD1 Y248F = molecular target: T3, CaBdf1 BD1 Y248F (Candida albicans, UniProt Q5A4W8, Y248F); assay: Histone peptide microarray binding, YF mutant;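 on CaBdf1 BD1 Normalized (0 to 100%) YF mutant: normalized to spotted c-myc peptide positive control signal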; parameters: species or system C. albicans; conditions: YF mutant BD1; for CaBdf1 BD1 Normalized (0 to 100%) YF mutant: normalized array signal; for CaBdf1 BD1 Raw data YF mutant: peptide array signal
T3 construct: made in house; host or cells: E. coli BL21(DE3), inferred from the wild-type GST construct
T3 sequence (Q5A4W8 193-327 Y248F): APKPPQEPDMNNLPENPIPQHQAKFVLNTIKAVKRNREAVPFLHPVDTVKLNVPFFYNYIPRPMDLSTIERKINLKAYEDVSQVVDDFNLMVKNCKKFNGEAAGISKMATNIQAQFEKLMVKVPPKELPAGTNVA
Protocol: (§2) In short, arrays were blocked and incubated with 1 μM of purified CaBdf1 BD1 or BD2. Arrays were incubated with recombinant BDs for 2 h at 4 °C in binding buffer (Tris-HCl 50 mM pH 7.4, NP-40 0.1%, NaCl 150 mM, glycerol 10%). […] Assays were performed in duplicate. Images were acquired on a Bio-Rad ChemiDoc XRS Imaging machine and data were quantified using the array analyser software provided by Active Motif.

CaBdf1 BD2 Y425F = molecular target: T4, CaBdf1 BD2 Y425F (Candida albicans, UniProt Q5A4W8, Y425F); assay: Histone peptide microarray binding, YF mutant;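 on CaBdf1 BD2 Normalized (0 to 100%) YF mutant: normalized to spotted c-myc peptide positive control signal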; parameters: species or system C. albicans; conditions: YF mutant BD2; for CaBdf1 BD2 Normalized (0 to 100%) YF mutant: normalized array signal; for CaBdf1 BD2 Raw data YF mutant: peptide array signal
T4 construct: made in house; host or cells: E. coli BL21(DE3), inferred from the wild-type GST construct
T4 sequence (Q5A4W8 361-501 Y425F): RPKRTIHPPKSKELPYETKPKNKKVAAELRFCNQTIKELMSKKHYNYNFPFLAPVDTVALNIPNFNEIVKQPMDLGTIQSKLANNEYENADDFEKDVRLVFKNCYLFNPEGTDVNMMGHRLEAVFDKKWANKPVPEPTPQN
Protocol: as §2

[1] = molecular target: T5, CaBdf1 BD2 (GST-tagged, wild-type) (Candida albicans (strain SC5314 / ATCC …, UniProt Q5A4W8)); assay: histone peptide array (Active Motif MODified), 1 uM GST-tagged bromodomain, anti-GST detection, normalized mean intensity
T5 chain: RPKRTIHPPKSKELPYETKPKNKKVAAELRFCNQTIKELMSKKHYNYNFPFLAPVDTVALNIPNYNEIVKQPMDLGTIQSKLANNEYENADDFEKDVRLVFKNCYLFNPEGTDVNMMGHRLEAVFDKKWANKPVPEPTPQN

[2] = molecular target: T6, CaBdf1 BD1 (GST-tagged, wild-type) (Candida albicans (strain SC5314 / ATCC …, UniProt Q5A4W8)); assay: as above
T6 chain: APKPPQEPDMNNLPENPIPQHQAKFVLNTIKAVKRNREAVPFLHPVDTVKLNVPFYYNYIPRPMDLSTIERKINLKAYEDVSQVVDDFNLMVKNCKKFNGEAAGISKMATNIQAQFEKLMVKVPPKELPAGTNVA

| Molecule | binding score [1] | binding score [2] | other results |
| --- | --- | --- | --- |
| A Rme2a T Kme2 Q T A R Kme2 S T G G K A P R K Q | – | – | CaBdf1 BD1 Normalized (0 to 100%) WT (CaBdf1 BD1): 0.399%; CaBdf1 BD1 Raw data WT (CaBdf1 BD1; first of two raw-data columns): 0.00481; CaBdf1 BD1 Raw data WT (CaBdf1 BD1): 0.00481; CaBdf1 BD2 Normalized (0 to 100%) WT (CaBdf1 BD2): 0.222%; CaBdf1 BD2 Raw data WT (CaBdf1 BD2; first of two raw-data columns): 0.0151; CaBdf1 BD2 Raw data WT (CaBdf1 BD2): 0.0006863; CaBdf1 BD1 Normalized (0 to 100%) YF mutant (CaBdf1 BD1 Y248F): 0.727%; CaBdf1 BD1 Raw data YF mutant (CaBdf1 BD1 Y248F; first of two raw-data columns): 0.007202; CaBdf1 BD1 Raw data YF mutant (CaBdf1 BD1 Y248F): 0.002401; CaBdf1 BD2 Normalized (0 to 100%) YF mutant (CaBdf1 BD2 Y425F): 0.0977%; CaBdf1 BD2 Raw data YF mutant (CaBdf1 BD2 Y425F; first of two raw-data columns): 0.0009709; CaBdf1 BD2 Raw data YF mutant (CaBdf1 BD2 Y425F): 0.002427 |
| A Rme2a T Kme2 Q T A Rme2a K S T G G K A P R K Q | – | – | CaBdf1 BD1 Normalized (0 to 100%) WT (CaBdf1 BD1): 0.508%; CaBdf1 BD1 Raw data WT (CaBdf1 BD1; first of two raw-data columns): 0.007483; CaBdf1 BD1 Raw data WT (CaBdf1 BD1): 0.003741; CaBdf1 BD2 Normalized (0 to 100%) WT (CaBdf1 BD2): 0.444%; CaBdf1 BD2 Raw data WT (CaBdf1 BD2): 0.01098; CaBdf1 BD1 Normalized (0 to 100%) YF mutant (CaBdf1 BD1 Y248F): 0.727%; CaBdf1 BD1 Raw data YF mutant (CaBdf1 BD1 Y248F; first of two raw-data columns): 0.007202; CaBdf1 BD1 Raw data YF mutant (CaBdf1 BD1 Y248F): 0.003086; CaBdf1 BD2 Normalized (0 to 100%) YF mutant (CaBdf1 BD2 Y425F): 0.293%; CaBdf1 BD2 Raw data YF mutant (CaBdf1 BD2 Y425F): 0.002427 |
| A Rme2a T Kme3 Q T A R Kac S T G G K A P R K Q | – | – | CaBdf1 BD1 Normalized (0 to 100%) WT (CaBdf1 BD1): 3.44%; CaBdf1 BD1 Raw data WT (CaBdf1 BD1; first of two raw-data columns): 0.01924; CaBdf1 BD1 Raw data WT (CaBdf1 BD1): 0.03528; CaBdf1 BD2 Normalized (0 to 100%) WT (CaBdf1 BD2): 0.518%; CaBdf1 BD2 Raw data WT (CaBdf1 BD2; first of two raw-data columns): 0.006177; CaBdf1 BD2 Raw data WT (CaBdf1 BD2): 0.0151; CaBdf1 BD1 Normalized (0 to 100%) YF mutant (CaBdf1 BD1 Y248F): 0.554%; CaBdf1 BD1 Raw data YF mutant (CaBdf1 BD1 Y248F; first of two raw-data columns): 0.005487; CaBdf1 BD1 Raw data YF mutant (CaBdf1 BD1 Y248F): 0.004801; CaBdf1 BD2 Normalized (0 to 100%) YF mutant (CaBdf1 BD2 Y425F): 0.244%; CaBdf1 BD2 Raw data YF mutant (CaBdf1 BD2 Y425F; first of two raw-data columns): 0.002427; CaBdf1 BD2 Raw data YF mutant (CaBdf1 BD2 Y425F): 0.002427 |
| SGRGKGGKGLGKGGAKRHR (S G R G K G G K G L G K G G A Kac R H R) | 0.00296 | 0.0149 | – |
| ARTKQTARKSTGGKAPRKQ (A R T K Q T A R K S pT G G K A P R K Q) | 0.00037 | 0.00326 | – |
| SGRGKQGGKARAKAKSRSS (not fully specified) | 0.00259 | 0.0087 | – |
| SGRGK(Ac)QGGK(Ac)ARAKAKSRSS | 0.0133 | 0.0283 | – |
| ARTKQTARKSTGGKAPRKQ (A Rme2a T Kme2 Q T A Rme2s Kme1 S T G G K A P R K Q) | 0.0037 | 0.00399 | – |
| PRKQLATKAARK(Me)[pS]APATGG | 0.00333 | 0.0029 | – |
| ARTKQTARKSTGGKAPRKQ (A R T K Q T A Rme2s Kme3 S pT G G K A P R K Q) | 0.0037 | 0.00399 | – |
| R[Arg(Me2s)]K[Lys(Me)]K(Ac)R[Arg(Me2a)][Lys(Me2)]K[Lys(Me3)]R[Lys(Me)][Arg(Me2s)]KK(Ac)RK [background 02] | 0.00444 | 0.00906 | – |
| SGRGKGGKGLGKGGAKRHR (not fully specified; histone peptide post-translational modifications (acetyl, methyl, phospho, citrulline) listed in columns 4-7 and embedded in the sequence text; N-terminus free or acetylated in column 8) | 0.00999 | 0.00725 | – |
| ARTKQTARKSTGGKAPRKQ (A R T K Q T A Rme2s Kac S pT G G K A P R K Q) | 0.00407 | 0.00363 | – |
| PRKQLATKAAR(Me2s)K(Me)[pS]APATGG | 0.00259 | 0.00254 | – |
| [pS]GRGK(Ac)QGGKARAKAKSRSS | 0.0215 | 0.0156 | – |
| ARTKQTARKSTGGKAPRKQ (A R pT Kme2 Q T A R K S T G G K A P R K Q) | 0.0037 | 0.00326 | – |
| ARTKQTARKSTGGKAPRKQ (A Rme2s T Kme3 Q T A R K S T G G K A P R K Q) | 0 | 0.00363 | – |
| A[Arg(Me2a)]TKQTARKSTGGKAPRKQ | 0.00296 | 0.000363 | – |
| AR(Me2s)TK(Me3)QTAR(Me2a)K(Ac)STGGKAPRKQ (reading uncertain) | 0.0037 | 0.0406 | – |
| A[Arg(Me2a)]TK(Ac)QTARKSTGGKAPRKQ | 0.00148 | 0.00363 | – |
| AR(Me2a)TK(Me3)QTARK(Me2)STGGKAPRKQ (reading uncertain) | 0.00296 | 0.00145 | – |
| PRKQLATKAAR(Me2s)K(Me3)[pS]APATGG | 0.00629 | 0.00109 | – |
| ARTKQTARKSTGGKAPRKQ (A Rme2a T Kme1 Q T A Rme2a Kac S T G G K A P R K Q) | 0.00333 | 0.0254 | – |
| ARTKQTARKSTGGKAPRKQ (A Rme2a T Kme3 Q T A Rme2s Kac S T G G K A P R K Q) | 0.0037 | 0.0337 | – |
| AR(Me2a)[pT]K(Me)QTARKSTGGKAPRKQ (reading uncertain) | 0.00037 | 0.00471 | – |
